The values that follow come from US20030199671A1 (published 2003).

Experiment [1] deals with T1, human IgG1 (human, UniProt P01857-1 1-330 = IgG part).
T1 construct: Calbiochem; human plasma IgG1 in anisotropy studies, myeloma-derived (cat. 400120) in batch/column studies; also called hIgG1
The experiment can be described thus: fluorescence anisotropy; PBS. Here is the method: (§1) Peptides were synthesized, fluorescein-labeled and HPLC purified as described above. Binding studies were performed using either a mixture of human plasma IgG isoforms (the Fc protein) or the individual human plasma IgG isoforms: IgG1, IgG2, IgG3, or IgG4.
(§2) Measurements were performed in 384-well microplates with 2 nM fluorescein-labeled peptide and a varied concentration of the IgG isoform target in a volume of 10 μl using a Tecan Polarion fluorescence polarization plate reader. The Fc binding buffer was 50 mM Tris-HCl, 200 mM NaCl, pH 8.0, 0.01% Tween 20. The IgG binding buffer was PBS with 0.01% Tween 20. The binding mixtures were equilibrated for 10 minutes in the microplate at 30° C. prior to performing the measurements.

Experiment [2] addresses T2, human IgG4 (human, UniProt P01861-1 1-327 = IgG part).
T2 construct: Calbiochem; plasma IgG4 in anisotropy studies, myeloma-derived (cat. 400126) in batch/column studies; also called hIgG4
The experiment can be described thus: fluorescence anisotropy; PBS. The method, then:
as §1, §2
A general note: Polarisation of emitted light reports the rotation of a fluorescent probe.

The target of experiment [3] is T3, human IgG2 (human, UniProt P01859-1 1-326 = IgG part).
T3 construct: Calbiochem; plasma IgG2 in anisotropy studies, myeloma-derived (cat. 400122) in batch/column studies; also called hIgG2
The experiment can be described thus: fluorescence anisotropy; PBS. Here is the method: as §1, §2

The target of experiment [4] is T4, Human IgG Fc fragment isolated from plasma (human).
T4 construct: domain: Fc fragment; also called human Fc; Fc protein
The experiment can be described thus: fluorescence anisotropy; 50 mM Tris-HCl, 200 mM NaCl, pH 8.0. Here is the method: as §1, §2

Experiment [5] addresses T4, Human IgG Fc fragment isolated from …. The experiment can be described thus: fluorescence anisotropy; pH 8.0, 0.05 M Tris-HCl, 0.2 M NaCl. Here is the method: (§3) All measurements were performed in 384 well microplates with 20 nM fluorescein-labeled peptide and various concentrations of the IgG isoform in a volume of between 10 and 20 μl using a Tecan Polarion fluorescence polarization plate reader. All binding buffers included 0.01% (v/v) Tween 20 to prevent peptide adsorption to the microplate. The binding mixture was equilibrated for 10 minutes in the microplate at 30° C. prior to performing the measurement.

The target in experiment [6] is T1, human IgG1. The experiment can be described thus: fluorescence anisotropy; pH 7.4 PBS (second value, unlabelled row). The method, then: as §3
For experiment [7], the target named is T3, human IgG2. The description is as above. Here is the method: as §3
Experiment [8] addresses T1, human IgG1. The experiment can be described thus: batch binding, immobilised ligand. Here is the method:
(§4) IgG targets were diluted into 10 mM phosphate buffer containing 150 mM NaCl and 0.01% Tween 20, pH 7.2 (PBST) or 50 mM Tris buffer containing, 150 mM NaCl and 0.01% Tween-20, pH 7.5 (TBST). Batch (static) binding and elution studies were conducted in a 96-well assay filterplate (Millipore MultiScreen-HV, with 0.45 μm Durapore membrane, product no. MAHVN4510). The target was allowed to incubate with the resin for 1-1.5 hours with shaking at room temperature. Unbound target was collected by centrifugation of samples from the assay plate directly into a low-UV absorbing 96-well collection plate (Costar, product no. 3635 or Greiner, product no. 655801). The unbound target was then quantitated by reading the absorbance at 280 nm (normalized to 1 cm pathlength, 1.4 mg/ml A280 extinction coefficient) of the collection plate on a microplate spectrophotometer (Molecular Devices Corp., SPECTRAmax PLUS) against a buffer blank.
(§5) The percentage bound target was determined by subtracting the mass determined as unbound from the corresponding condition's control values (control non-filtered added directly to the collection plate and/or the negative control). The assay plate was washed (3×) with 200 μl of binding buffer by vacuum filtration followed by addition of 100 μl of various elution conditions (e.g.: 0.1 M sodium bicarbonate buffer, pH 8.5 and/or 0.1 M sodium citrate buffer, pH 4.0). After a 30-60 minute incubation with shaking at room temperature, the eluted target was collected by centrifugation of the assay plate into another collection plate and quantitated in a similar manner. Percent elution of total load was then determined to characterize elution recovery efficiency under various conditions.

For experiment [9], the target named is T2, human IgG4. In words: batch binding, immobilised ligand. The method, then: as §4, §5
The target in experiment [10] is T5, human IgG3 (human, UniProt P01860-1 1-377).
T5 construct: Calbiochem; plasma IgG3 in anisotropy studies, myeloma-derived (cat. 400124) in batch/column studies; also called hIgG3
In words: batch binding, immobilised ligand. Here is the method: as §4, §5

In experiment [11] the target is T3, human IgG2. In words: batch binding, immobilised ligand. The method, then:
as §4, §5

Experiment [12] addresses T1, human IgG1. In words: fluorescence anisotropy; pH 5.7, 0.01 M Tris-acetate. Here is the method:
as §3

The target in experiment [13] is T5, human IgG3. The description is as above. The method, then: as §3
In experiment [14] the target is T1, human IgG1. In words: fluorescence anisotropy; pH 7.4 PBS. Here is the method: as §3
Experiment [15] addresses T5, human IgG3. The experiment can be described thus: fluorescence anisotropy; pH 7.4 PBS. Here is the method:
as §3

The target in experiment [16] is T3, human IgG2. The experiment can be described thus: fluorescence anisotropy; pH 7.4 PBS. The method, then:
as §3

Experiment [17] concerns the target T1, human IgG1. In words: fluorescence anisotropy; pH 7.4, 0.01 M Tris-HCl. Here is the method: as §3
Experiment [18] has as its target T2, human IgG4. The experiment can be described thus: fluorescence anisotropy; pH 7.4, 0.01 M Tris-HCl. Here is the method:
as §3

The target of experiment [19] is T5, human IgG3. The experiment can be described thus: fluorescence anisotropy; pH 7.4, 0.01 M Tris-HCl. Here is the method:
as §3

Experiment [20] deals with T3, human IgG2. In words: fluorescence anisotropy; pH 7.4, 0.01 M Tris-HCl. Here is the method:
as §3

Experiment [21] addresses T1, human IgG1. The experiment can be described thus: anisotropy; pH 4.0 - salt.
The target in experiment [22] is T3, human IgG2. The experiment can be described thus: anisotropy; pH 4.0 - salt.
Experiment [23] has as its target T1, human IgG1. In words: anisotropy; pH 4.0 + salt.
For experiment [24], the target named is T3, human IgG2. In words: anisotropy; pH 4.0 + salt.
In experiment [25] the target is T1, human IgG1. In words: anisotropy; pH 7.5 - salt.
Experiment [26] concerns the target T3, human IgG2. The experiment can be described thus: anisotropy; pH 7.5 - salt.
The target of experiment [27] is T5, human IgG3. The experiment can be described thus: fluorescence anisotropy; PBS. Here is the method:
as §1, §2

The target of experiment [28] is T1, human IgG1. In words: fluorescence anisotropy; pH 9.3, 0.2 M NaCl. Here is the method:
as §3

Experiment [29] deals with T1, human IgG1. In words: fluorescence anisotropy; pH 9.3, 0.01 M sodium bicarbonate.
Experiment [30] concerns the target T3, human IgG2. Described as above.

fluorescein = fluorescein label attached at the ε-amino group of the C-terminal lysine

T1 sequence (P01857 other isoform, or with tags, fused parts or gaps): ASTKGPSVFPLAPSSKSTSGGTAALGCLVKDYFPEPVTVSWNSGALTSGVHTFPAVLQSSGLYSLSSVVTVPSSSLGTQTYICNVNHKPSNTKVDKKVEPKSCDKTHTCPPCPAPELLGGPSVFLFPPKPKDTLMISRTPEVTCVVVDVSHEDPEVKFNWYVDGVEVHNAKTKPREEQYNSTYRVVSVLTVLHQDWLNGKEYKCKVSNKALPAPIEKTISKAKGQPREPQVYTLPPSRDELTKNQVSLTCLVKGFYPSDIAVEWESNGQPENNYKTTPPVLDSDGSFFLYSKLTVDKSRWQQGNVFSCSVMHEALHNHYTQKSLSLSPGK
T2 sequence (P01861 other isoform, or with tags, fused parts or gaps): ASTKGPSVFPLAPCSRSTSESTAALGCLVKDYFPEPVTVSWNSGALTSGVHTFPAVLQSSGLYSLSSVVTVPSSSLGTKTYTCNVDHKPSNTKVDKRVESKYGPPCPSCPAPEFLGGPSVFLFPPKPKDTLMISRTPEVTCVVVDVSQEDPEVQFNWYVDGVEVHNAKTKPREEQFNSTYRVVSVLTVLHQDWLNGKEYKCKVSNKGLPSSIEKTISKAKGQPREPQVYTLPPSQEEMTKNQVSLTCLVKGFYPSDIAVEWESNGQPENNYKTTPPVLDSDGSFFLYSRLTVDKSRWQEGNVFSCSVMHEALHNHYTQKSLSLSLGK
T3 sequence (P01859 other isoform, or with tags, fused parts or gaps): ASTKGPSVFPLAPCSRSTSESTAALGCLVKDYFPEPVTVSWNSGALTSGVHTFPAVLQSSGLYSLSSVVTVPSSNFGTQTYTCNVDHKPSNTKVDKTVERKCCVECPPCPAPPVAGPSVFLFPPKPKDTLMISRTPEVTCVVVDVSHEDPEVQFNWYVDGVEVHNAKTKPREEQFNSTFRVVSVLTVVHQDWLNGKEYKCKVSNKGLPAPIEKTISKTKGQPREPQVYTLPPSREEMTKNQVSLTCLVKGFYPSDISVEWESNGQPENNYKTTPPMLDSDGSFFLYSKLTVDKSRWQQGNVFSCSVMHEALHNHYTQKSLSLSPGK
T5 sequence (P01860 other isoform, or with tags, fused parts or gaps): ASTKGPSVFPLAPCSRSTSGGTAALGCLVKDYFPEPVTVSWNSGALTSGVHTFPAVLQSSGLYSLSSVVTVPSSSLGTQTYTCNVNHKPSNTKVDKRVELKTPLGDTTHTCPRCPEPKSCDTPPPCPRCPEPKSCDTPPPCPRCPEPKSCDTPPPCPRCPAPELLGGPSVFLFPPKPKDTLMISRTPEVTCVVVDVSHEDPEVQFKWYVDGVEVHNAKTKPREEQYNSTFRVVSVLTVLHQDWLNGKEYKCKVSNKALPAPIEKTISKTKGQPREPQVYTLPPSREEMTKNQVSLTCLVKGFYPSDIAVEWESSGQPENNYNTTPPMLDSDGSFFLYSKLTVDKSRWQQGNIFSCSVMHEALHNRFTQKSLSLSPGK

B1: DX301 (peptide)
peptide: Ac-GDRRACSRDWSGALVWCAGHEPGPEGGGK(fluorescein)-NH2
modifications: not fully specified (bridges); printed as Ac-GDRRACSRDWSGALVWCAGHEPGPEGGGK-NH2; cysteine pairing not given here
notes: also called fluoresceinated DX253
Usually Kd stands for the equilibrium constant for the complex coming apart. B1: the equilibrium dissociation constant (Kd) in the experiment with human IgG1 [1] was found to be 3600 nM; in the experiment with human IgG4 [2] it was 9700 nM; in the experiment with human IgG2 [3] it was 2300 nM; in [4], 6800 nM.

B2: DX252 (peptide)
peptide: Ac-GDDDHCYWFREWFNSECPHGEPGPEGGGK-NH2
modifications: not fully specified (bridges); printed as Ac-GDDDHCYWFREWFNSECPHGEPGPEGGGK-NH2; cysteine pairing not given here; also: fluorescein-labelled form in anisotropy assays, place not given here
notes: Fluorescein-labelled in anisotropy assays; immobilised in batch/column assays
For the molecule B2, the Kd was found to be 5100 nM in experiment [5]; 2900 nM in the experiment with human IgG1 [6]; 3000 nM with human IgG2 [7]; 100 nM with human IgG1 [12]; 60 nM in the experiment with human IgG3 [13]; 1900 nM with human IgG1 [14]. In addition, the Kd with human IgG3 [15] amounted to 2700 nM; with human IgG2 [16], 3600 nM; with human IgG1 [17] it was 2100 nM; in the experiment with human IgG4 [18] it was 3200 nM; with human IgG3 [19] it was 2300 nM; with human IgG2 [20], 3400 nM. Moreover, the “bdg % (of Total Load)” value was determined as 37% with human IgG1 [8], 14% with human IgG4 [9], 44% in the experiment with human IgG3 [10] and 37% with human IgG2 [11].

With Ac-AGTYWCTFWELPCDPAPGPEGGGK-NH2 (cysteine pairing not given here, immobilised in batch/column assays) [DX404], the Kd in the experiment with human IgG1 [21] is 1500 nM; with human IgG2 [22] it was 1000 nM; in the experiment with human IgG1 [23], 2000 nM; with human IgG2 [24], 2000 nM; with human IgG1 [25] it was 8800 nM; with human IgG2 [26], 8600 nM.

B3: DX300 (peptide)
peptide: Ac-AGKYWCSFWGLQCKTGTPGPEGGGK(fluorescein)-NH2
modifications: not fully specified (bridges); printed as Ac-AGKYWCSFWGLQCKTGTPGPEGGGK-NH2; cysteine pairing not given here
notes: also called fluoresceinated DX250
Consider B3, for which binding with human IgG3 [27] was put at a Kd of 4100 nM.

B4: DX254 (peptide)
peptide: Ac-AGYYWCNYWGLCPDQGTPGPEGGGK-NH2
modifications: not fully specified (bridges); printed as Ac-AGYYWCNYWGLCPDQGTPGPEGGGK-NH2; cysteine pairing not given here; also: fluorescein-labelled form in anisotropy assays, place not given here
notes: Fluorescein-labelled in anisotropy assays; immobilised in batch assays
In the case of B4, the Kd in [5] amounted to 1600 nM; in the experiment with human IgG1 [28], 600 nM; in the experiment with human IgG1 [6] it was 400 nM; in the experiment with human IgG1 [12], 90 nM; with human IgG3 [13], 300 nM; with human IgG1 [14] it was 140 nM. Moreover, the Kd with human IgG3 [15] worked out at 3000 nM; in the experiment with human IgG2 [16], 1100 nM; in the experiment with human IgG1 [29] it was 400 nM; with human IgG2 [30], 2000 nM; in the experiment with human IgG4 [18] it was 2900 nM; in the experiment with human IgG2 [20] it was 2000 nM.
